Source: patent US20200262877A1, “ION CHANNEL-BINDING PEPTIDES AND METHODS OF USE THEREOF” (priority 2017, published 2020)

Columns and labels:
TRPV1 = biological target: T1, TRPV1 (Homo sapiens, UniProt Q8NER1); assay: Ion channel panel (IonWorks Barracuda): TRPV1; assay type: cell-based; conditions: 100% = no change, <100% = inhibition
T1 construct: host or cells: HEK293 or CHO
Procedure, shortened: (§1)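 Transfected HEK293 or CHO cells were exposed for at least 5 min to peptides at 200 nM and 20 μM final, tested in duplicate, in HEPES-buffered physiological saline. Activation was taken as peptide-plus-agonist current over control current ×100, and inhibition as 1 minus that ratio ×100. Each channel's control was its own reference compound.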

Kv1.3 = biological target: T2, Kv1.3 (Homo sapiens, UniProt P22001); assay: cell-based; assay type: cell-based; conditions: 100% = no change, <100% = inhibition
T2 construct: host or cells: HEK293 or CHO
Procedure, shortened: as §1

Kv1.1 = biological target: T3, Kv1.1 (Homo sapiens, UniProt Q09470); assay: cell-based; assay type: cell-based; conditions: 100% = no change, <100% = inhibition
T3 construct: host or cells: HEK293 or CHO
T3 sequence (Q09470 whole entry): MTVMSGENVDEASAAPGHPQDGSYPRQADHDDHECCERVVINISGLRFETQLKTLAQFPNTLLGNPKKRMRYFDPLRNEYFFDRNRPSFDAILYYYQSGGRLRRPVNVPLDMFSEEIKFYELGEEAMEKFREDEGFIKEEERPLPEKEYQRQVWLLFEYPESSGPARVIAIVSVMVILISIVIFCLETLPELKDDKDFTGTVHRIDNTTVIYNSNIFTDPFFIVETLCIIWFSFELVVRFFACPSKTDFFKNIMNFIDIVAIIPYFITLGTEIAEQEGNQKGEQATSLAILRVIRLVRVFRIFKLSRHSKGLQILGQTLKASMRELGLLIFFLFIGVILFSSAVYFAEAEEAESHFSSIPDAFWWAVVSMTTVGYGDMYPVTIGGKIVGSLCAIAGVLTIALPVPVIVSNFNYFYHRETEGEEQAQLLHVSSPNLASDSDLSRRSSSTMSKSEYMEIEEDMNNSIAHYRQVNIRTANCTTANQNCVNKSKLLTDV
Procedure, shortened: as §1

Kv1.2 = biological target: T4, Kv1.2 (Homo sapiens, UniProt P16389); assay: cell-based; assay type: cell-based; conditions: 100% = no change, <100% = inhibition
T4 construct: host or cells: HEK293 or CHO
T4 sequence (P16389 whole entry): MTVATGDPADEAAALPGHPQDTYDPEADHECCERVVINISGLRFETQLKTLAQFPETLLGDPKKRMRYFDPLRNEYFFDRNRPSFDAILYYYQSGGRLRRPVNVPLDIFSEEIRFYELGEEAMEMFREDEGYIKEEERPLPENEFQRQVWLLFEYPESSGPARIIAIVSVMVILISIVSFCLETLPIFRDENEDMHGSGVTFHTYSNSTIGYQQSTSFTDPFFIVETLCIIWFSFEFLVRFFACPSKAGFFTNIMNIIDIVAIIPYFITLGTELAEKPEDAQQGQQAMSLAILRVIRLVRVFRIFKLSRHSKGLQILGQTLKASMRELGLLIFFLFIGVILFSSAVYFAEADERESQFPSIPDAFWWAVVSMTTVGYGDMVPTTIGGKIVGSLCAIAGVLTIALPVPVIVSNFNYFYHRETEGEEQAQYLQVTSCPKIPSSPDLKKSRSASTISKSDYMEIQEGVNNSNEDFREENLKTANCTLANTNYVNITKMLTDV
Procedure, shortened: as §1

TRPA1 = biological target: T5, TRPA1 (Homo sapiens, UniProt O75762); assay: Ion channel panel (IonWorks Barracuda): TRPA1; assay type: cell-based; conditions: 100% = no change, <100% = inhibition
T5 construct: host or cells: HEK293 or CHO
Procedure, shortened: as §1

Nav1.7 = biological target: T6, Nav1.7 (Homo sapiens, UniProt Q15858); assay: cell-based; assay type: cell-based; conditions: 100% = no change; for Activity of Nav1.7 with peptide, expressed as a percentage of the reference compound: peptide at 0.2 μM; for Activity of Nav1.7 with peptide (percentage of the reference compound): peptide at 20 μM
T6 construct: host or cells: HEK293 or CHO
T6 sequence (Q15858 whole entry): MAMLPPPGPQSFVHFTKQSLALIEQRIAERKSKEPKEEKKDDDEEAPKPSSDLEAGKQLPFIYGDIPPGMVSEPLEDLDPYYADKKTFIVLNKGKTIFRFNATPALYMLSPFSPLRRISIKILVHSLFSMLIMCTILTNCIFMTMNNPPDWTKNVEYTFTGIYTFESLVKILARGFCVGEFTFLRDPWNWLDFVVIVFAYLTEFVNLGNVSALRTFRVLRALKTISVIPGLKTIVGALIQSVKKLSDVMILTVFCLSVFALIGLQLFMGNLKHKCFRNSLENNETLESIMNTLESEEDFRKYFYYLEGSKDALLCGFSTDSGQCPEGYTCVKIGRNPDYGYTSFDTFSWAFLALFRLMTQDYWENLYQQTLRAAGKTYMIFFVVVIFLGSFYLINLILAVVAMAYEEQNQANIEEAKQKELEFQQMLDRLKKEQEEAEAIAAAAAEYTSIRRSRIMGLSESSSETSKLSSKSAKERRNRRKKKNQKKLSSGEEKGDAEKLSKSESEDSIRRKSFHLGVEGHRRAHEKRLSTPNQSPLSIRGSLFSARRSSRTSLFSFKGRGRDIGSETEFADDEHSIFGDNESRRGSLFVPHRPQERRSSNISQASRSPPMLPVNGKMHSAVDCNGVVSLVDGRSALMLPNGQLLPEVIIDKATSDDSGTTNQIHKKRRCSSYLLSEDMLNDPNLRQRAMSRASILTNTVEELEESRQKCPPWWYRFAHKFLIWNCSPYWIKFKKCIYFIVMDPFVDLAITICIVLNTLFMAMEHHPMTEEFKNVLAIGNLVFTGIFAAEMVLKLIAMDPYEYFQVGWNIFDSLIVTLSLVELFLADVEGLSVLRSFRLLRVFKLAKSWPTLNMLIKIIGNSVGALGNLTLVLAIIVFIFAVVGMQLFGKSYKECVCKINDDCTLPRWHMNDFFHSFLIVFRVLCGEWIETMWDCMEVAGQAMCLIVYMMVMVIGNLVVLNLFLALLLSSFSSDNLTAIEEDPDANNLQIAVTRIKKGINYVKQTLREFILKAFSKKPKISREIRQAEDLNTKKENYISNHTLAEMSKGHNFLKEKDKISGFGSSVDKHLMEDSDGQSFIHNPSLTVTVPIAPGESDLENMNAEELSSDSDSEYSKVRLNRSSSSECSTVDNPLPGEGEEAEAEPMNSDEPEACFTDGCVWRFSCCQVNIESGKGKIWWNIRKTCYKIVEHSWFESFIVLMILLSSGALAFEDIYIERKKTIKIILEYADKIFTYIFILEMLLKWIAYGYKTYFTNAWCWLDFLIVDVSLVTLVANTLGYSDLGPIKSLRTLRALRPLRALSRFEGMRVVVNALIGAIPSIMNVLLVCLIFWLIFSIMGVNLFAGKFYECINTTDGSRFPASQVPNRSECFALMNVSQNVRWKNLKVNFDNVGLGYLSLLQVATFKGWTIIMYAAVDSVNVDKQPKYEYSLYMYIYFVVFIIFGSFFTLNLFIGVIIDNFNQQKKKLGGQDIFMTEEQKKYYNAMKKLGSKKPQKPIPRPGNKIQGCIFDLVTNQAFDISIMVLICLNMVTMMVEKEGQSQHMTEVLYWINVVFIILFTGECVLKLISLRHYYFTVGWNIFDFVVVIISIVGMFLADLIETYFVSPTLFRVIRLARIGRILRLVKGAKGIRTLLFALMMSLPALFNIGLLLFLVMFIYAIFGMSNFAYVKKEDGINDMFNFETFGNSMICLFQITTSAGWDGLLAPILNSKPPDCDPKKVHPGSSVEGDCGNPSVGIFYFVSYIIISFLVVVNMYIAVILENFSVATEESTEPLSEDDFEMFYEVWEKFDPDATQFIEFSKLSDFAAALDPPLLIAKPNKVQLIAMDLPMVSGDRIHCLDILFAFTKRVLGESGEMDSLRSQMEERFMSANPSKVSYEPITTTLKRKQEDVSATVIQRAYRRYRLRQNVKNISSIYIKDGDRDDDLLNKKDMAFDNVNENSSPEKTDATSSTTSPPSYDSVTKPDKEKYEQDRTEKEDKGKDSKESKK

Nav1.5 = Nav1.5 (Homo sapiens, UniProt Q14524); assay: in vitro; conditions: 100% = no change; for Activity of Nav1.5 with peptide, expressed as a percentage of the reference compound: peptide at 0.2 μM; for Activity of Nav1.5 with peptide (percentage of the reference compound): peptide at 20 μM
Sequence of Nav1.5 (Q14524 whole entry): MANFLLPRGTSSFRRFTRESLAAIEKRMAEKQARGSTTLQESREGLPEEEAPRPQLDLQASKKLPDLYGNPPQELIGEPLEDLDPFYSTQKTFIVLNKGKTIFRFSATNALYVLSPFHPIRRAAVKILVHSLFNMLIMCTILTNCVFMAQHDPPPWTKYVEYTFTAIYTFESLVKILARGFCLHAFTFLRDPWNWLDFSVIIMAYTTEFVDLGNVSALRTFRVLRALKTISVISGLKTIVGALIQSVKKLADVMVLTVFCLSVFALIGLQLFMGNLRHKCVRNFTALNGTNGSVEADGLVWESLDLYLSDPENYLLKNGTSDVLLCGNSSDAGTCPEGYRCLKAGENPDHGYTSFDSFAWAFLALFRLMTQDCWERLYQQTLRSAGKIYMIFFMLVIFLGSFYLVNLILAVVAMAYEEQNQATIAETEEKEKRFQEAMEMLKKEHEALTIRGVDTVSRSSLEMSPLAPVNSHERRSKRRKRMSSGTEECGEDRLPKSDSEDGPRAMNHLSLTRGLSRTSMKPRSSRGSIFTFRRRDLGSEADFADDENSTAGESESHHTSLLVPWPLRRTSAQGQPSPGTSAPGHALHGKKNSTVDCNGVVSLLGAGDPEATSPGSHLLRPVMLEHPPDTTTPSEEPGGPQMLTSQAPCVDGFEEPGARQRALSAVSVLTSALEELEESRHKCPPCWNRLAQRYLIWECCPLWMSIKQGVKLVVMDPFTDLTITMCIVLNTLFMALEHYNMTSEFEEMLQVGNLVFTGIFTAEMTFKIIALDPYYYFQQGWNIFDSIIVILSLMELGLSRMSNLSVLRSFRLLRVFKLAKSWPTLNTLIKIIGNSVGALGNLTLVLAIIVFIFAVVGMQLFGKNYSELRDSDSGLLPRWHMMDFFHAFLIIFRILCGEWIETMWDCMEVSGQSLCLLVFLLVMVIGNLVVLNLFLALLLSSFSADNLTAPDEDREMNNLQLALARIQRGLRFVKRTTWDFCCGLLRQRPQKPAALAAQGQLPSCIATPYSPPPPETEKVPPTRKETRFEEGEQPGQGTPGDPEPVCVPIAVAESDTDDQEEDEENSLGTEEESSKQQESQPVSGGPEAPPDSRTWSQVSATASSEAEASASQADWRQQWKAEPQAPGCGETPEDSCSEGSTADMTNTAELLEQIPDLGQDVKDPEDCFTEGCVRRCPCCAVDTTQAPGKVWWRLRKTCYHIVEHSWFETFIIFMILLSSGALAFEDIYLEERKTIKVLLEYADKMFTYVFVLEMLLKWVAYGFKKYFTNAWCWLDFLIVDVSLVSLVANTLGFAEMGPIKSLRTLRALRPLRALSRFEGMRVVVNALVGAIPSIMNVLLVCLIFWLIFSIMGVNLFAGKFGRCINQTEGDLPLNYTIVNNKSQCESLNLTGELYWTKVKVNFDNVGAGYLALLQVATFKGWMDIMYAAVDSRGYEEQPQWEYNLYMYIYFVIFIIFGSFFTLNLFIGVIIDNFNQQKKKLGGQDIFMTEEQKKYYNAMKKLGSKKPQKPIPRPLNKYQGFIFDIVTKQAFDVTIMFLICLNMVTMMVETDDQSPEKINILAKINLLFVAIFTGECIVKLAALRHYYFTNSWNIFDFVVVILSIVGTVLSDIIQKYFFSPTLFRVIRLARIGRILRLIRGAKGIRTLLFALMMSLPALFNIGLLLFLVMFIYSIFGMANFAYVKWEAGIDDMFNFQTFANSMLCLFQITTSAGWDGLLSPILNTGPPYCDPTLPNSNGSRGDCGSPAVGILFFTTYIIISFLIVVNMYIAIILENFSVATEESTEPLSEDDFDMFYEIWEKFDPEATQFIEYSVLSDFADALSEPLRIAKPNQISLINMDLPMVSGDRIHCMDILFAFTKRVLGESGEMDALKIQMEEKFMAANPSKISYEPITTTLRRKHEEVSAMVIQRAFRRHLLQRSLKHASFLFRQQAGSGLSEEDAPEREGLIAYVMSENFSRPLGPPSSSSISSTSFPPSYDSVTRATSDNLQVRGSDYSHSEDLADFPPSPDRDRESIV
Procedure, shortened: as §1

hERG = hERG (Homo sapiens, UniProt Q12809); assay: in vitro; conditions: 100% = no change, <100% = inhibition
Procedure, shortened: as §1

GABA = assay: Ion channel panel (IonWorks Barracuda): GABA; assay type: cell-based; conditions: 100% = no change, <100% = inhibition
Procedure, shortened: as §1

5HT3a = biological target: T7, 5HT3a (Homo sapiens, UniProt P46098); assay: Ion channel panel (IonWorks Barracuda): 5HT3a; assay type: cell-based
T7 construct: host or cells: HEK293 or CHO
T7 sequence (P46098 whole entry, looked up): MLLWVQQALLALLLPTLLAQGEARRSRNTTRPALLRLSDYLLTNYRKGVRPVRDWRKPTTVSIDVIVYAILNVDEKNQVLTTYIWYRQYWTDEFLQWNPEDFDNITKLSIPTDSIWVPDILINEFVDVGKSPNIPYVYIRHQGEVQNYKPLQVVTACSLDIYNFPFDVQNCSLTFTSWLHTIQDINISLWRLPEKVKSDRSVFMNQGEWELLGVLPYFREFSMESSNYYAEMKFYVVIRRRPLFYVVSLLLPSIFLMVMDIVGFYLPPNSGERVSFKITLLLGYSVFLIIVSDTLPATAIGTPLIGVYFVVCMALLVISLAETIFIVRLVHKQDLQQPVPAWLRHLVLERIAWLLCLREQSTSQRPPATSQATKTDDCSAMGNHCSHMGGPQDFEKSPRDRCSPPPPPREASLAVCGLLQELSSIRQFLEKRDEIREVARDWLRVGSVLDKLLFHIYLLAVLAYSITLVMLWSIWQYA
Procedure, shortened: as §1

α3β4 = biological target: T8, α3β4 (Homo sapiens, UniProt P30926+P32297); assay: Ion channel panel (IonWorks Barracuda): α3β4; assay type: cell-based; conditions: 100% = no change, <100% = inhibition
T8 construct: host or cells: HEK293 or CHO
Procedure, shortened: as §1

NR2B = biological target: T9, NR2B (Homo sapiens, UniProt Q13224); assay: Ion channel panel (IonWorks Barracuda): NR2B; assay type: cell-based; conditions: 100% = no change, <100% = inhibition
T9 construct: host or cells: HEK293 or CHO
Procedure, shortened: as §1

Cav2.1 = biological target: T10, Cav2.1 (Homo sapiens, UniProt O00555); assay: cell-based; conditions: 100% = no change, <100% = inhibition
T10 construct: host or cells: HEK293 or CHO
Procedure, shortened: as §1

Cav2.2 = biological target: T11, Cav2.2 (Homo sapiens, UniProt Q00975); assay: cell-based; conditions: 100% = no change, <100% = inhibition
T11 construct: host or cells: HEK293 or CHO
Procedure, shortened: as §1

Kv2.1 = biological target: T12, Kv2.1 (Homo sapiens, UniProt Q14721); assay: cell-based; conditions: 100% = no change, <100% = inhibition
T12 construct: host or cells: HEK293 or CHO
Procedure, shortened: as §1

α4β2 = biological target: T13, α4β2 (Homo sapiens, UniProt P17787+P43681); assay: Ion channel panel (IonWorks Barracuda): α4β2; assay type: cell-based; conditions: 100% = no change, <100% = inhibition
T13 construct: host or cells: HEK293 or CHO
Procedure, shortened: as §1

NR2A = biological target: T14, NR2A (Homo sapiens, UniProt Q12879); assay: Ion channel panel (IonWorks Barracuda): NR2A; assay type: cell-based; conditions: 100% = no change, <100% = inhibition
T14 construct: host or cells: HEK293 or CHO
Procedure, shortened: as §1

Kir2.1 = biological target: T15, Kir2.1 (Homo sapiens, UniProt P63252); assay: Ion channel panel (IonWorks Barracuda): Kir2.1; assay type: cell-based; conditions: 100% = no change, <100% = inhibition
T15 construct: host or cells: HEK293 or CHO
Procedure, shortened: as §1

[1] = first of two Nav1.7 columns (probably TP1)
[2] = second of two Nav1.7 columns (probably TP2)
[3] = first of two Nav1.5 columns (probably TP1)
[4] = second of two Nav1.5 columns (probably TP2)

## 29 (GSVFINVKCRGSPECLPKCKEAIGKSAGKCMNGKCKCYP) [compound 29]
TRPV1; peptide at 0.2 μM
  Activity of TRPV1 with peptide, expressed as a percentage of the reference compound: 109%
TRPV1; peptide at 20 μM
  Activity of TRPV1 with peptide (percentage of the reference compound): 86%
Kv1.3; peptide at 0.2 μM
  Activity of Kv1.3 with peptide, expressed as a percentage of the reference compound: 21%
Kv1.3; peptide at 20 μM
  Activity of Kv1.3 with peptide (percentage of the reference compound): 0%
Kv1.1; peptide at 0.2 μM
  Activity of Kv1.1 with peptide, expressed as a percentage of the reference compound: 97%
Kv1.1; peptide at 20 μM
  Activity of Kv1.1 with peptide (percentage of the reference compound): 64%
Kv1.2; peptide at 0.2 μM
  Activity of Kv1.2 with peptide, expressed as a percentage of the reference compound: 77%
Kv1.2; peptide at 20 μM
  Activity of Kv1.2 with peptide (percentage of the reference compound): 42%
TRPA1; peptide at 0.2 μM
  Activity of TRPA1 with peptide, expressed as a percentage of the reference compound: 89%
TRPA1; peptide at 20 μM
  Activity of TRPA1 with peptide (percentage of the reference compound): 109%
Nav1.7; [1]
  Activity of Nav1.7 with peptide, expressed as a percentage of the reference compound: 97%
  Activity of Nav1.7 with peptide (percentage of the reference compound): 67%
Nav1.7; [2]
  Activity of Nav1.7 with peptide, expressed as a percentage of the reference compound: 111%
  Activity of Nav1.7 with peptide (percentage of the reference compound): 62%
Nav1.5; [3]
  Activity of Nav1.5 with peptide, expressed as a percentage of the reference compound: 110%
  Activity of Nav1.5 with peptide (percentage of the reference compound): 103%
Nav1.5; [4]
  Activity of Nav1.5 with peptide, expressed as a percentage of the reference compound: 114%
  Activity of Nav1.5 with peptide (percentage of the reference compound): 99%
hERG; peptide at 0.2 μM
  Activity of hERG with peptide, expressed as a percentage of the reference compound: 95%
hERG; peptide at 20 μM
  Activity of hERG with peptide (percentage of the reference compound): 78%
GABA; peptide at 0.2 μM
  Activity of GABA with peptide, expressed as a percentage of the reference compound: 123%
GABA; peptide at 20 μM
  Activity of GABA with peptide (percentage of the reference compound): 104%
5HT3a
  Activity of 5HT3a with peptide (percentage of the reference compound): 91%
  Activity of 5HT3a with peptide, expressed as a percentage of the reference compound: 122%
α3β4; peptide at 0.2 μM
  Activity of a3b4 with peptide, expressed as a percentage of the reference compound: 108%
α3β4; peptide at 20 μM
  Activity of a3b4 with peptide (percentage of the reference compound): 98%
NR2B; peptide at 0.2 μM
  Activity of NR2B with peptide, expressed as a percentage of the reference compound: 101%
NR2B; peptide at 20 μM
  Activity of NR2B with peptide (percentage of the reference compound): 82%
Cav2.1; peptide at 0.2 μM
  Activity of Cav2.1 with peptide, expressed as a percentage of the reference compound: 100%
Cav2.1; peptide at 20 μM
  Activity of Cav2.1 with peptide (percentage of the reference compound): 111%
Cav2.2; peptide at 0.2 μM
  Activity of Cav2.2 with peptide, expressed as a percentage of the reference compound: 116%
Cav2.2; peptide at 20 μM
  Activity of Cav2.2 with peptide (percentage of the reference compound): 100%
Kv2.1; peptide at 0.2 μM
  Activity of Kv2.1 with peptide, expressed as a percentage of the reference compound: 91%
Kv2.1; peptide at 20 μM
  Activity of Kv2.1 with peptide (percentage of the reference compound): 121%
α4β2; peptide at 0.2 μM
  Activity of a4b2 with peptide, expressed as a percentage of the reference compound: 108%
α4β2; peptide at 20 μM
  Activity of a4b2 with peptide (percentage of the reference compound): 101%
NR2A; peptide at 0.2 μM
  Activity of NR2A with peptide, expressed as a percentage of the reference compound: 93%
NR2A; peptide at 20 μM
  Activity of NR2A with peptide (percentage of the reference compound): 87%
Kir2.1; peptide at 0.2 μM
  Activity of Kir2.1 with peptide, expressed as a percentage of the reference compound: 103%
Kir2.1; peptide at 20 μM
  Activity of Kir2.1 with peptide (percentage of the reference compound): 97%
